Here are results for ten molecules from publication PMC8214142 (The Biochemical journal, 2021).

Sequences and labels used below:
B1: Biotinyl-(GGS)3SETd1BWin-NH2 (peptide)
peptide: Biotin-GGSGGSGGSEHVTGCARSEGFYT-NH2
SMILES: CC(C)[C@H](NC(=O)[C@H](Cc1c[nH]cn1)NC(=O)[C@H](CCC(=O)O)NC(=O)[C@H](CO)NC(=O)CNC(=O)CNC(=O)[C@H](CO)NC(=O)CNC(=O)CNC(=O)[C@H](CO)NC(=O)CNC(=O)CNC(=O)CCCC[C@@H]1SC[C@@H]2NC(=O)N[C@@H]21)C(=O)N[C@H](C(=O)NCC(=O)N[C@@H](CS)C(=O)N[C@@H](C)C(=O)N[C@@H](CCCNC(=N)N)C(=O)N[C@@H](CO)C(=O)N[C@@H](CCC(=O)O)C(=O)NCC(=O)N[C@@H](Cc1ccccc1)C(=O)N[C@@H](Cc1ccc(O)cc1)C(=O)N[C@H](C(N)=O)[C@@H](C)O)[C@@H](C)O
B2: Biotinyl-(GGS)3MLL3Win-NH2 (peptide)
peptide: Biotin-GGSGGSGGSVNPTGCARSEPKMS-NH2
SMILES: CSCC[C@H](NC(=O)[C@H](CCCCN)NC(=O)[C@@H]1CCCN1C(=O)[C@H](CCC(=O)O)NC(=O)[C@H](CO)NC(=O)[C@H](CCCNC(=N)N)NC(=O)[C@H](C)NC(=O)[C@H](CS)NC(=O)CNC(=O)[C@@H](NC(=O)[C@@H]1CCCN1C(=O)[C@H](CC(N)=O)NC(=O)[C@@H](NC(=O)[C@H](CO)NC(=O)CNC(=O)CNC(=O)[C@H](CO)NC(=O)CNC(=O)CNC(=O)[C@H](CO)NC(=O)CNC(=O)CNC(=O)CCCC[C@@H]1SC[C@@H]2NC(=O)N[C@@H]21)C(C)C)[C@@H](C)O)C(=O)N[C@@H](CO)C(N)=O
B3: Biotinyl-(GGS)3MLL2Win-NH2 (peptide)
peptide: Biotin-GGSGGSGGSINPTGCARSEPKIL-NH2
SMILES: CC[C@H](C)[C@H](NC(=O)[C@H](CCCCN)NC(=O)[C@@H]1CCCN1C(=O)[C@H](CCC(=O)O)NC(=O)[C@H](CO)NC(=O)[C@H](CCCNC(=N)N)NC(=O)[C@H](C)NC(=O)[C@H](CS)NC(=O)CNC(=O)[C@@H](NC(=O)[C@@H]1CCCN1C(=O)[C@H](CC(N)=O)NC(=O)[C@@H](NC(=O)[C@H](CO)NC(=O)CNC(=O)CNC(=O)[C@H](CO)NC(=O)CNC(=O)CNC(=O)[C@H](CO)NC(=O)CNC(=O)CNC(=O)CCCC[C@@H]1SC[C@@H]2NC(=O)N[C@@H]21)[C@@H](C)CC)[C@@H](C)O)C(=O)N[C@@H](CC(C)C)C(N)=O
B4: Biotinyl-(GGS)3SETd1AWin-NH2 (peptide)
peptide: Biotin-GGSGGSGGSEHQTGSARSEGYYP-NH2
SMILES: C[C@H](NC(=O)[C@H](CO)NC(=O)CNC(=O)[C@@H](NC(=O)[C@H](CCC(N)=O)NC(=O)[C@H](Cc1c[nH]cn1)NC(=O)[C@H](CCC(=O)O)NC(=O)[C@H](CO)NC(=O)CNC(=O)CNC(=O)[C@H](CO)NC(=O)CNC(=O)CNC(=O)[C@H](CO)NC(=O)CNC(=O)CNC(=O)CCCC[C@@H]1SC[C@@H]2NC(=O)N[C@@H]21)[C@@H](C)O)C(=O)N[C@@H](CCCNC(=N)N)C(=O)N[C@@H](CO)C(=O)N[C@@H](CCC(=O)O)C(=O)NCC(=O)N[C@@H](Cc1ccc(O)cc1)C(=O)N[C@@H](Cc1ccc(O)cc1)C(=O)N1CCC[C@H]1C(N)=O
B5: Biotinyl-(GGS)3MLL4Win-NH2 (peptide)
peptide: Biotin-GGSGGSGGSLNPHGAARAEVYLS-NH2
SMILES: CC(C)C[C@H](NC(=O)[C@H](Cc1ccc(O)cc1)NC(=O)[C@@H](NC(=O)[C@H](CCC(=O)O)NC(=O)[C@H](C)NC(=O)[C@H](CCCNC(=N)N)NC(=O)[C@H](C)NC(=O)[C@H](C)NC(=O)CNC(=O)[C@H](Cc1c[nH]cn1)NC(=O)[C@@H]1CCCN1C(=O)[C@H](CC(N)=O)NC(=O)[C@H](CC(C)C)NC(=O)[C@H](CO)NC(=O)CNC(=O)CNC(=O)[C@H](CO)NC(=O)CNC(=O)CNC(=O)[C@H](CO)NC(=O)CNC(=O)CNC(=O)CCCC[C@@H]1SC[C@@H]2NC(=O)N[C@@H]21)C(C)C)C(=O)N[C@@H](CO)C(N)=O

What is called Kd is the free concentration of one partner at which half of the binding sites on the other are occupied at equilibrium, for simple one-to-one binding. For orientation: koff means a measure of how fast the partners let go of each other. The low end stands for a long-lived complex, the high end for a short-lived complex. Broadly, the kon is the second-order rate constant of association. A higher kon goes with fast association.

* marks the point of attachment. Biotin = O=C1N[C@H]2[C@H](CS[C@H]2CCCCC(=O)*)N1

One test has as its target T1, WD40 repeat protein 5 (WDR5), human (human, UniProt P61964 1-334). Put plainly: BLI. In general terms: Biolayer interferometry detects binding as a change in optical thickness at a sensor tip.
In turn, B1 yielded a dissociation constant Kd of 250 nM, a dissociation rate constant (koff) of 0.017 s⁻¹ and a kon of 71000 M⁻¹ s⁻¹.
The molecule B2 had a Kd of 100 nM, a koff of 0.0053 s⁻¹ and a kon of 54000 M⁻¹ s⁻¹.
Turning to B3, the dissociation constant Kd was found to be 170 nM, the koff was determined as 0.0077 s⁻¹ and the kon was 44000 M⁻¹ s⁻¹.
The molecule B4 showed a Kd of 620 nM, a koff of 0.051 s⁻¹ and a kon of 82000 M⁻¹ s⁻¹.
Taken in the same sequence, the figures for B5 were 1700 nM, 0.039 s⁻¹ and 23000 M⁻¹ s⁻¹.

A further test deals with T1, WD40 repeat protein 5 (WDR5), human. Put plainly: SPR. In general terms: In SPR one partner is held on a chip, and binding of the other changes the refractive index at the surface.
{sulforhodamine B}-GGSGGSGGSEHVTGCARSEGFYT-NH2 [Sulforhodamine B-(GGS)3SETd1BWin-NH2] came in with an off-rate (koff) of 0.024 s⁻¹ and an on-rate constant (kon) of 340000 M⁻¹ s⁻¹.
For the molecule {sulforhodamine B}-GGSGGSGGSVNPTGCARSEPKMS-NH2 [Sulforhodamine B-(GGS)3MLL3Win-NH2], the koff was found to be 0.009 s⁻¹ and the kon came out at 490000 M⁻¹ s⁻¹.
The corresponding values for {sulforhodamine B}-GGSGGSGGSEHQTGSARSEGYYP-NH2 [Sulforhodamine B-(GGS)3SETd1AWin-NH2] are 0.11 s⁻¹ and 310000 M⁻¹ s⁻¹.
For {sulforhodamine B}-GGSGGSGGSLNPHGAARAEVYLS-NH2 [Sulforhodamine B-(GGS)3MLL4Win-NH2], the koff is 0.041 s⁻¹ and the kon was 210000 M⁻¹ s⁻¹.
{sulforhodamine B}-GGSGGSGGSINPTGCARSEPKIL-NH2 [Sulforhodamine B-(GGS)3MLL2Win-NH2]: the koff is 0.012 s⁻¹ and the kon worked out at 370000 M⁻¹ s⁻¹.
